Laboratory results reported in US20110165145A1 (published 2011).

B1: M0033-E05 Fab (Fab, V domains shown)
VH: EVQLLESGGGLVQPGGSLRLSCAASGFTFSHYSMWWVRQAPGKGLEWVSYIGPSGGHTRYADSVKGRFTISRDNSKNTLYLQMNSLRAEDTAVYYCARGLYYYDSSSVTHAFDLWGQGTMVTVSS
VL: DIQMTQSPSSLSASVGDRVTISCRASQGITNYLVWFQQKPGKAPRLLIYDASTLESGVPSRFSGSGSGTDFTLTISSLQPEDFATYYCQQADGFPLTFGEGTKVEMKR
notes: soluble Fab (sFab); also called R0032-A05
B2: M0068-E03 Fab (Fab, V domains shown)
VH: EVQLLESGGGLVQPGGSLRLSCAASGFTFSEYVMAWVRQAPGKGLEWVSSIVSSGGYTKYADSVKGRFTISRDNSKNTLYLQMNSLRAEDTAVYYCAKDMTYSGDAFDVWGQGTMVTVSS
VL: DIQMTQSPSSLSASVGDRVTITCRASQSINTYLNWYQQKPGKAPKVLIHAASTLESGVPSRFSGSGSATEFTLTISSLQPEDFATFYCQQSYSVPFTFGPGTRLSSKR
notes: soluble Fab (sFab); heavy constant part carries His6 and myc tags; also called R0032-C01
B3: M0070-H08 IgG (parental) (antibody, V domains shown)
VH: EVQLLESGGGLVQPGGSLRLSCAASGFTFSRYWMIWVRQAPGKGLEWVSSIRSSGETKYADSVKGRFTISRDNSKNTLYLQMNSLRAEDTAVYYCARGPLSDYYDSSGYYFDAFDIWGQGTMVTVSS
VL: DIQMTQSPSSLSASAGDRVTITCRASQSISSYLNWYQQKPGKAPNLLIYTTSNLQGGVPSRFSGSGSGTDFTLTISSLQPEDFATYYCQQGYSFPLTFGGGTKVEIK
B4: M0070-H08 Fab (Fab, V domains shown)
VH: B3 VH
VL: DIQMTQSPSSLSASAGDRVTITCRASQSISSYLNWYQQKPGKAPNLLIYTTSNLQGGVPSRFSGSGSGTDFTLTISSLQPEDFATYYCQQGYSFPLTFGGGTKVEIKR
notes: soluble Fab (sFab); also called R0032-A07
B5: M0080-G03 Fab (Fab, V domains shown)
VH: EVQLLESGGGLVQPGGSLRLSCAASGFTFSFYQMMWVRQAPGKGLEWVSSISPSGGRTYYADSVKGRFTISRDNSKNTLYLQMNSLRAEDTAVYYCAKDIGLGYCSSTSCYTGTPLDYWGQGTLVTVSS
VL: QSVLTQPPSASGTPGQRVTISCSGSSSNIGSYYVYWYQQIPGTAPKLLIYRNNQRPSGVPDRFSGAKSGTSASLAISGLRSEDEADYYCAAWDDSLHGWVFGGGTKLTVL
B6: M0072-C06 Fab (Fab, V domains shown)
VH: EVQLLESGGGLVQPGGSLRLSCAASGFTFSAYIMTWVRQAPGKGLEWVSSISPSGGYTVYADSVKGRFTISRDNSKNTLYLQMNSLRAEDTAVYYCARDSGFGDPFDYWGQGTMVTVSS
VL: DIQMTQSPSSLSASVGDRVTITCRASQSIRNYLNWYQQKPGKAPKLLIYAASKLEDGVPSRFSGSGTGTDFTLTIRSLQPEDFASYFCQQSYSSPGITFGPGTKVEIKR
notes: soluble Fab (sFab); also called R0032-A09
B7: M0072-C06 IgG (parental) (antibody, V domains shown)
VH: B6 VH
VL: DIQMTQSPSSLSASVGDRVTITCRASQSIRNYLNWYQQKPGKAPKLLIYAASKLEDGVPSRFSGSGTGTDFTLTIRSLQPEDFASYFCQQSYSSPGITFGPGTKVEIK
B8: M0072-G06 Fab (Fab, V domains shown)
VH: EVQLLESGGGLVQPGGSLRLSCAASGFTFSEYVMWWVRQAPGKGLEWVSVISPSGGYTVYADSVKGRFTISRDNSKNTLYLQMNSLRAEDTAVYYCARDRGGATTLDYWGQGTLVTVSS
VL: DIQMTQSPSTLSASVGDRVTITCRASQTISSWLAWYQQKPGKAPKLMIYKAASLGSEVPSRFSGSGSGTEFTLTISSLQPEDFSTYYCQQYKTYPVTFGQGTRLEIKR
notes: soluble Fab (sFab); also called R0032-C05
B9: M0072-G06 IgG (parental) (antibody, V domains shown)
VH: B8 VH
VL: DIQMTQSPSTLSASVGDRVTITCRASQTISSWLAWYQQKPGKAPKLMIYKAASLGSEVPSRFSGSGSGTEFTLTISSLQPEDFSTYYCQQYKTYPVTFGQGTRLEIK
B10: M0073-C11 Fab (Fab, V domains shown)
VH: EVQLLESGGGLVQPGGSLRLSCAASGFTFSPYDMWWVRQAPGKGLEWVSSISSSGGITAYADSVKGRFTISRDNSKNTLYLQMNSLRAEDTAVYYCARAGYSSSWGYYYYGMDVWGQGTTVTVSS
VL: QSALTQPPSVSVSPGQTASITCSGDRLGDKYASWYQQKPGQSPVLVIYQDTKRPSGIPERFSGSNSGSTATLTISGTQAMDEADYYCQAWDSSTVVFGGGTKLTVL
B11: M0072-E03 Fab (Fab, V domains shown)
VH: EVQLLESGGGLVQPGGSLRLSCAASGFTFSEYEMSWVRQAPGKGLEWVSSIYSSGGWTKYTDSVKGRFTISRDNSKNTLYLQMNSLRAEDTAVYYCAKGVHYDSSGLPIDWYFDLWGRGTLVTVSS
VL: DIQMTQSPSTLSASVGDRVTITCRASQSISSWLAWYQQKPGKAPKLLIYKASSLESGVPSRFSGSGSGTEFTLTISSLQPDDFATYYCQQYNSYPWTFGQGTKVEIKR
notes: soluble Fab (sFab); also called R0032-C03
B12: M0072-E03 IgG (parental) (antibody, V domains shown)
VH: B11 VH
VL: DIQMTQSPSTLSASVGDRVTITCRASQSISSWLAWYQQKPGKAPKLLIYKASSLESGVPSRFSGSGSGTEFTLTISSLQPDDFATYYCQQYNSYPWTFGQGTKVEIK

Legend:
[1] = target: T1, insulin-like growth factor II (IGF-II), amino acids 1-67 (human, UniProt P01344 25-91); test: SPR (Flexchip), Fab, 2nd of duplicate
T1 construct: recombinant; also called IGF-II (67aa); IGF2

[2] = target: T2, IGF-IIE (amino acids 1-104 of pro-IGF-II) (human, UniProt P01344 25-128); test: SPR (Flexchip), Fab, 1st of duplicate
T2 construct: Biotinylated in the selections; also called IGF-IIE (104aa)

[3] = target: T1, insulin-like growth factor II (IGF-II), …; test: cell-based or functional assay
[4] = target: T2, IGF-IIE (amino acids 1-104 of …); test: cell-based or functional assay
[5] = target: T1, insulin-like growth factor II (IGF-II), …; test: SPR (Flexchip), Fab, 1st of duplicate
[6] = target: insulin-like growth factor I (IGF-I) (UniProt P05019 49-118); test: cell-based or functional assay
[7] = target: T1, insulin-like growth factor II (IGF-II), …; test: SPR, IgG on Protein G', then ligand, then BP; competitor BP2; 0 = no significant competition, 5 = competes strongly
Procedure: (§1) BIACORE® T100 and a CM5 chip coated with Protein G were utilised to set up following assay. Approximately 1000 RU of Protein G′ was immobilized on a CM5 chip using standard amine chemistry immobilization method.
(§2) 4) Protein G′ surface was finally regenerated by injection of 10 mM Glycine pH 1.5-injected at 30 ul/min for 60 sec.

[8] = target: T2, IGF-IIE (amino acids 1-104 of …); test: as above
Procedure: as §1, §2

[9] = target: T1, insulin-like growth factor II (IGF-II), …; test: SPR, IgG on Protein G', then ligand, then BP; competitor BP4; 0 = no significant competition, 5 = competes strongly
Procedure: as §1, §2

[10] = target: T2, IGF-IIE (amino acids 1-104 of …); test: as above
Procedure: as §1, §2

[11] = target: T2, IGF-IIE (amino acids 1-104 of …); test: SPR (Flexchip), Fab, 2nd of duplicate
[12] = target: T1, insulin-like growth factor II (IGF-II), …; test: competition SPR (BIACORE T100), affinity in solution, free ligand read on huIR-A ECD; measurement 1
Procedure: (§3) Competition SPR (BIACORE®) was performed under conditions of partially mass-transport limited conditions according to previously described methodology (Nieba et al., 1996). Approximately 16,700 relative response units (RU) of huIR-A (-exon11) ectodomain was coupled by standard amine chemistry to a BIACORE® CM5 chip sensor. Uncoated flow-cell surface was used as a reference. […] Regeneration of the surface was achieved by injection of 30 ul NaCltrate/NaCl pH 4.5. […] These Req estimates were subsequently plotted against total concentrations of Fab used and the resulting inhibition curve was utilised to calculate dissociation constant (KD).

[13] = target: T2, IGF-IIE (amino acids 1-104 of …); test: as above
Procedure: as §3

[14] = target: T2, IGF-IIE (amino acids 1-104 of …); test: competition SPR (BIACORE T100), affinity in solution, free ligand read on huIR-A ECD; measurement 2
Procedure: as §3

[15] = target: T1, insulin-like growth factor II (IGF-II), …; test: as above
Procedure: as §3

T1 sequence (P01344 25-91): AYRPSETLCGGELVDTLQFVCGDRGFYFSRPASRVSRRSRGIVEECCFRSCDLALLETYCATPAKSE
insulin-like growth factor I (IGF-I), sequence (P05019 49-118 limits assumed): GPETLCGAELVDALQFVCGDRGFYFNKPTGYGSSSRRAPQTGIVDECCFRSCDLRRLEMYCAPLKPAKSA
T2 sequence (P01344 25-128): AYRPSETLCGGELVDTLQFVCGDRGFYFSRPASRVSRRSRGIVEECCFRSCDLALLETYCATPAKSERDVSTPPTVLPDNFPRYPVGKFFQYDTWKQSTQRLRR

Binder | Kd [1] [nM] | Kd [2] [nM] | Kd [5] [nM] | IGF-I stimulated Ba/F3 cell proliferation, sFab at 50 µg/ml [6] [% inhibition] | competition score [7] [score 0-5] | competition score [8] [score 0-5] | competition score [9] [score 0-5] | competition score [10] [score 0-5] | Kd [12] [nM] | Kd [13] [nM] | also measured
B1 | 5.5 | 0.87 |  |  |  |  |  |  |  |  | 
B2 |  | 0.66 | 0.93 | ~30 |  |  |  |  |  |  | IC50, IGF-II stimulated Ba/F3 cell proliferation (MTS) [3]: 2.27 µg/mL; IC50, IGF-IIE stimulated Ba/F3 cell proliferation (MTS) [4]: 5.74 µg/mL
B3 |  |  |  |  | 3 | 2 | 2 | 1 |  |  | 
B4 | 1.1 | 0.36 | 3.3 |  |  |  |  |  | 3.24 | 4.83 | Kd [11]: 0.39 nM
B5 |  |  |  |  |  |  |  |  |  | 29.3 | Kd [14]: 21.2 nM
B6 | 0.7 | 0.52 | 5.2 | ~30 |  |  |  |  | 1.64 | 3.95 | Kd [15]: 2.52 nM; Kd [14]: 1.05 nM; IC50, IGF-II stimulated Ba/F3 cell proliferation (MTS) [3]: 5.12 µg/mL; IC50, IGF-IIE stimulated Ba/F3 cell proliferation (MTS) [4]: 2.3 µg/mL
B7 |  |  |  |  | 3 | 2 | 2 | 1 |  |  | 
B8 | 1.4 | 0.56 | 0.58 | ~30 |  |  |  |  | 3.99 | 6.36 | Kd [11]: 0.89 nM; IC50, IGF-II stimulated Ba/F3 cell proliferation (MTS) [3]: 8.7 µg/mL; IC50, IGF-IIE stimulated Ba/F3 cell proliferation (MTS) [4]: 2.5 µg/mL
B9 |  |  |  |  | 2 | 2 | 1 | 1 |  |  | 
B10 |  |  |  |  |  |  |  |  |  | 20.2 | Kd [14]: 19.1 nM
B11 | 0.3 | 0.096 | 0.75 | ~30 |  |  |  |  | 2.62 | 5.32 | Kd [11]: 0.22 nM
B12 |  |  |  |  | 4 | 3 | 4 | 3 |  |  | 
